# Reference: patent publication US20090282582A1, “ENVIRONMENTAL STRESS RESPONSIVE PROMOTER AND METHOD OF TISSUE-SPECIFIC GENE EXPRESSION USING THE SAME” (RIKEN, priority 2006, published 2009)
# B1: Promoter of RAFL05-18-I12: environmental stress responsive promoter DNA, SEQ ID NO: 2, upstream of At2g47770 (homolog of benzodiazepine receptor) (nucleic acid, listed as Arabidopsis thaliana)
# DNA: ACCATGGCACCTGAAATACGTAAGGATACAAGAAGAGATATCATCACTGAATTCACTAAAATCACTCCCATCATAAACAGACAAATCAAAACCAAAATATTGTTCATTAACATCGTAAATGGACAACGCTTGACAACGTCTACAAATACTTGATGAAAAGAGATAAGAAATAAGTCTTCATTTATACCACATCAGTCTTCACGTAGATGATCAAGACGATCCCCAGATTGACAATGTAGAGAACACCAAAAAGAATCTGCAAAATGTAAGAGAGTAGAATTGAGACAAATGAAGCGATGGATGGATCAAATTCCGCAGCTAATCCAAAGATAGGAGATTCAAAGAGAGGGAATTGCAAGCACCTGAGCAGGGTAGACTTCCCCTCCAGTTAAGTTCTGCACTGCAGAGTAAACATAGAGGAAACCTGCTGGATAAACCAATGGCCCTGTATCGCCTTTCAAGTTCCCATAGTCTCTCTCTCCCCCGAGAAACCCACTAACCTGCCCCAATTAGATAAATTTCACTTAAAGACTACTAGTTTACTTTGAAGAAACCACAGTTGACCATTGACACTTACCTGTGACATGTAAGCATCCCAATCGATCTTCGTGTCTGTTAAAGGCAAATGACGAAATTTGGTTTAAAACCTATGCAAATGCACATTTCGAGGGATACGCAAGCAAAAAAAAAAAGGAGGTAAATAGCTCTCACATGGAACATAGGCGATAATAAGTGCGACTAGGATTGCATCAGCAAGAATTAGCGCGAATGCGAATGGAACTGCAGGTTTTTTGAATAGATCGGATCGATTCGTCTCCTTCCCCAGCCGACGGCTACGAGAAGCTCTCAAACTCGCCGGTGATGAGGCGCCCGCCATGAAAACAGAGCAAATCGCATCAGCGTCTAGCCAACGCCGCGTAACAGACAACTACTTCCATATTACTACTCTTCTAATTAGCCCAAATTAAATGAGCCTATTGGGCTTCTTGTCTTAGTCGGTGTAGAGCCCAATTGTTGTTTTATTTTTTAATAATGCAAAAGTATTAAGCGATAAATAAATAAGCATCGCAATCGTCCCAAAACTGTGTGTATGCATCAGACATGAGCATATAGAGTAAGCACGTGTCCACACTTTTTCACAAAGTTATCTAAAAACAAAAAACAATTAATTAGCATTCGACGTGTACATATCACTCGCCACGTGTACAAGAGCCTTGGCCTTTTTGCTTCTTCTTCTTGTCTATTAATATCATCTCCTGATTATACTCTCTTTTGACCAAGCTGCTTCTTCTCCATCTATCCAACATCTCAAATCTCAGTAATCTTGTTCCTTCGATTCTGTTTTGGACGTTTGTA
# B2: Promoter of RAFL06-07-B19: environmental stress responsive promoter DNA, SEQ ID NO: 4, upstream of At3g11410 (AHG3 gene) (nucleic acid, listed as Arabidopsis thaliana)
# DNA: CCCGAACTTAACCCAAATGCCCACCTTTAATTATTCAAAACCAAAAAAGAAGTGTTTGATGCTGAGGTTTGAACTCATCAGATACACGTAACTATTTTCCAATTTATTTTCGTTTATGTGCATTTCAGAATTTCAAGCATAAATATACTCTTATTGTTTAAACATTTCAAATTGCATGTGTGAAATAATATCAGAGTTAGAATATATGTTAATCTTCTCTTCTCCTAGATTCAGTTAGATACGTTTCTATCTTCTTTTAGGCAACATCTCTTGTACAAATAGTCTCTTTGGCAATTCAATACAATCAACCTTTTACGATATATATATTTGTTATTTCTTGTACAAATAGGATCAAAATTGTTATTTCTGAAGCAAATTTTCTTTAGTTTGGATGTCAATTATATCCTCGATTAATATGTAATCACGGAACGGATTCACGATGCGTTATTTTAGAAGCAAATTTATACTTGATAGTACGTTCAGAGGCATCGCTTTTGTACAAATTGAAGCGGGTTTGTTCAATATTTAAAATAACACAGGAAACATTCAAATGTATTATTGATGTTGCTTAGGTTTGTGAAATGATATGAACCATATCGTATATATTACTAGATTTTTCTTATATGTTTTAAGGGTAGTGGGGCTGACCTATCATTCTGTTTGGCATTACCAATCAGACTATCAGAGTATTCACCATTCAGGATTCCATAACTAGAAAAAGAAGGGGTTTACATTTTCTCATACTGTATAATTTTCTACTATCAGAGATTTTATCGATTACATTAATCTCATAGTGATTATTCTGATTTATAAAAAAGTTGACAAAATAATTAAAACCAGTATTTTATAACAAGATTGTCTCTCTCCCATGGCCATTATTTTGACCTCTGACTTATTTAAATCTTAATTAACAGCATAATACTGTATTAAGCGTATTTAAATGAAACAAAATAAAAGAAAAAAAGAACAAAACGAAAGAGTGGACCACATGCGTGTCAAGAAAGGCCGGTCGTTACCGTTAAGGTGTGTCGAACTGTGATTGGGCCACGTTAACGGCGTATCCAAAAGAAAGAAAGGGCACGTGTATAGATCTAGGAAAAAAGAAAGAATGGACGGTTTAGATTGTATCTAGGTACCAGGAAATGGAACGTCACACCAAACGGTACGTGTCGGATCCTGCCCGTTGATGCTGACGGTCAGCAACTTCCCCTTATTCATGCCCCCCTGCCCGTTAATTACGTGTAACCCTTCCATGCGAAAATCAAACCCTTTTTTTTTTTTGCGTTCTTCTTCAACTTTTCTTTTTAAATCAAACCTTTTCTTTTTAAAATCACATTGCATTTCCTAACGCTCAACAAAATCTCTCTCTACTAATATCTCTCTCTCTCTCTCTCTATTGTTGAAGAAGACTCATAATCGGAGATTGTTTGTTTTTGGTTTGCTCTGTAAATTGGAGAAGTTTTGTTAGAGATCAA
# What was measured:
# [1] = system: Arabidopsis thaliana (columbia ecotype) plant body; assay: full-length cDNA microarray analysis of gene expression levels after environmental stress application; conditions: in vivo
# Protocol: In this example, the gene expression levels at the time of application of various types of environmental stresses were analyzed using microarrays. Specifically, the microarrays described in Seki et al., “Monitoring the expression profiles of 7000 Arabidopsis genes under drought, cold, and high-salinity stresses using a full-length cDNA microarray,” Plant J. 31: 279-292, 2002, were used, and analysis was carried out in accordance with the method similar to the method described therein. Various types of environmental stresses were applied to a plant body under the following conditions. Specifically, low-temperature stress application was carried out by introducing a plate containing a plant body into a low-temperature chamber (4° C.). Dehydration stress application was carried out by capturing the plant body with forceps while refraining from damaging the plant body, roughly removing moisture from the plant body on a Kim Towel, placing the plant body on another plate, placing the plate in a clean bench while leaving the lid open, letting it stand for 2 hours, and then closing the lid. Salt stress application was carried out by dispensing a mixture of MS medium (containing 1% sucrose, 0.1% agar, and 1 mM luciferin) with 250 mM NaCl to the roots of the plant bodies (200 μl per plant body) using a Pipetman. ABA stress application was carried out by dispensing a mixture of MS medium (containing 1% sucrose, 0.1% agar, and 1 mM luciferin) with 100 μM ABA to the roots of the plant bodies (200 μl per plant body) using a Pipetman. As a plant body to which environmental stress is to be applied, Arabidopsis thaliana (columbia ecotype), which had been cultivated on a germination medium containing Murashige and Skoog Salt, 3% sucrose, and […] for 3 weeks, was used. Cultivation conditions were determined so as to maintain the temperature in the chamber at 22° C. with a 16-hour light period and an 8-hour dark period. Total RNA was extracted from plant bodies after environmental stress application or from plant bodies to which no environmental stress had been applied using the TRIZOL Reagent (Life Technologies), and mRNA was extracted using the mRNA isolation kit (Militenyi Biotec Auburn). In accordance with the method described in the above article, mRNA samples were reversely transcribed in the presence of Cy3 dUTP or Cy5 dUTP (Amersham Pharmacia). Microarray analysis was carried out using cDNAs obtained via reverse transcription. Data obtained via microarray analysis were analyzed using the Quantarray Version 2.0 (GSI Lumonics).
# [2] = system: transgenic Arabidopsis thaliana plant body (luciferase reporter gene); assay: luciferase assay of promoter::LUC transgenic plants after environmental stress application; assay type: in vivo; conditions: for Tissue allowing specific induction: summary over stress types
# Protocol: Specifically, promoter regions were isolated from these genes, transgenic plants in which luciferase reporter genes were to be expressed under the control of such promoters were prepared, and tissue specificity of the promoters was inspected via luciferase assay.
# In this example, DNA fragments containing promoter regions of the genes identified in Example 1 were recovered via PCR.
# The nucleotide sequences of the amplified DNA fragments were determined in accordance with a conventional technique to confirm that mutagenesis, such as substitution or deletion, was not introduced thereinto. After the absence of mutagenesis was confirmed, the recovered DNA fragments were introduced into the vector for promoter analysis (i.e., a vector prepared by introducing the Gateway recombinant sequence (tradename: Gateway Vector Conversion System, Invitrogen) and the luciferase reporter gene into the pGreen vector (Plant Molecular Biology 42: 819-832, 2000)) using the Gateway recombination system to construct a recombinant vector.
# The recombinant vector prepared in (1) above was introduced into a plant via Agrobacterium infection. When a gene is introduced via Agrobacterium infection, a process of infecting a plant with Agrobacterium containing a plasmid comprising the target gene construct is necessary. This process was carried out via vacuum infiltration. Specifically, a plant body of Arabidopsis thaliana that had been grown in soil comprising vermiculite and an equivalent amount of pearlite was soaked in a culture solution of Agrobacterium containing the recombinant vector prepared in (1). The resultant was placed in a desiccator, suctioned with a vacuum pump to 65 to 70 mmHg, and then allowed to stand at room temperature for 5 to 10 minutes. The pot was transferred onto a tray, covered with a wrap, and kept moistened. The wrap was removed on the following day, the plant was allowed to grow in that state, and seeds were then harvested.
# Subsequently, seeds were sown on MS agar medium to which antibiotic hygromycin has been added in order to select an individual having the recombinant vector prepared in (1). Arabidopsis thaliana that had been grown in this medium was transferred to a pot and allowed to grow therein. Thus, seeds of transgenic plants to which the recombinant vector prepared in (1) has been introduced were obtained.
# The seeds of the transgenic plant lineage prepared in (2) were sowed on MS agar medium. The plant body 10 days after sowing was used for luciferase assay.
# At the outset, 1 mM luciferin (containing 0.01% Triton-X) was sprayed over the entire plant body 5 times. After the plant body was allowed to stand in the dark for 5 minutes, luciferase luminescence was assayed using ARGUS (assay after treatment for 0 hours). Subsequently, various types of environmental stresses were applied (see below). Low-temperature stress application was carried out by introducing a plate containing a plant body into a low-temperature chamber (4° C.). Dehydration stress application was carried out by capturing the plant body with forceps while refraining from damaging the plant body, roughly removing moisture from the plant body on a Kim Towel, placing the plant body on another plate, placing the plate in a clean bench while leaving the lid open, letting it stand for 2 hours, and then closing the lid. Salt stress application was carried out by dispensing a mixture of MS medium (containing 1% sucrose, 0.1% agar, and 1 mM luciferin) with 250 mM NaCl to the roots of the plant bodies (200 μl per plant body) using a Pipetman. ABA stress application was carried out by dispensing a mixture of MS medium (containing 1% sucrose, 0.1% agar, and 1 mM luciferin) with 100 μM ABA to the roots of the plant bodies (200 μl per plant body) using a Pipetman.
# Luciferase luminescence was assayed 2, 5, and 10 hours after the above various types of environmental stresses had been applied using the ARGUS system (Hamamatsu Photonics). […]
molecule,measurement,setting,value
B1,Environmental stress type to which the promoter responds,[1],Dehydration and salt
same,activity to induce gene expression,[2]; 5 hours after dehydration stress application,strong activity
same,Tissue in which specific induction of expression is realized,[2]; Dehydration stress,Stem and leaf tissue and root tissue
same,Tissue in which specific induction of expression is realized,"[2]; Dehydration stress, listed as promoter of RAFL05-18-I12",stem and leaf tissue and root tissue
same,Tissue allowing specific induction,[2],Stem and leaf tissue and root tissue
B2,Environmental stress type to which the promoter responds,[1],"Dehydration, salt,"
same,Tissue in which specific induction of expression is realized,[2]; ABA stress (100 μM ABA),Root tissue
same,Tissue in which specific induction of expression is realized,"[2]; ABA stress (100 μM ABA), listed as promoter of RAFL06-07-B19",root tissue
same,Tissue in which specific induction of expression is realized,[2]; Dehydration stress,Stem and leaf tissue and root tissue*^1
same,Tissue in which specific induction of expression is realized,"[2]; Dehydration stress, listed as promoter of RAFL06-07-B19",stem and leaf tissue and root tissue
same,tissue in which expression is induced,[2]; dehydration stress applied for 5 hours,stem and leaf tissue and root tissue
same,tissue in which expression is induced,[2]; dehydration stress applied for 10 hours,leaf tissue and root tissue
same,tissue in which expression is induced,"[2]; dehydration stress applied for 10 hours, listed as promoter of RAFL06-07-B19",lowered activity to induce gene expression in stem tissue and root tissue but to induce gene expression in leaf tissue
same,Tissue allowing specific induction,[2],Stem and leaf tissue and root tissue
